What was measured:
Assay in all cases: PEPSCAN/CLIPS peptide ELISA, antibody 1 µg/mL
[1] = target: T1, peptide No. 3 of Table 11 (SEQ ID NO: 211) (human)
T1 peptide: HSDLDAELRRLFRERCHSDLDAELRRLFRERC
Procedure: (§1) 5034 types of the synthesized peptides were covalently bound to PEPSCAN cards (455 peptides/card), and the binding of the synthesized peptides to antibodies was then analyzed by the ELISA method. […] After washing, the resultant was allowed to react with a 1000-fold diluted peroxidase-secondary antibody complex at 25° C. for 1 hour. After washing, a substrate solution (a solution containing 2,2′-azino-di-3-ethylbenzthiazoline sulfonate (ABTS) and 2 μL of 3% hydrogen peroxide solution) was added to the reaction solution, followed by a chromogenic reaction for 1 hour. The binding activity of the antibodies was quantified by photographing with a CCD camera and then performing an image analysis.

[2] = target: T2, peptide No. 4 of Table 11 (SEQ ID NO: 212) (human)
T2 peptide: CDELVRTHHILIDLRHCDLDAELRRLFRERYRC
Procedure: as §1

[3] = target: T3, peptide No. 6 of Table 11 (SEQ ID NO: 214) (human)
T3 peptide: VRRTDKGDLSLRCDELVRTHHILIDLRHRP
Procedure: as §1

[4] = target: T4, peptide No. 7 of Table 11 (SEQ ID NO: 215) (human)
T4 peptide: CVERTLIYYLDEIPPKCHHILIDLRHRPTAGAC
Procedure: as §1

[5] = target: T5, peptide No. 8 of Table 11 (SEQ ID NO: 216) (human)
T5 peptide: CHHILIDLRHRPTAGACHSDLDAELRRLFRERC
Procedure: as §1

[6] = target: T6, peptide No. 19 of Table 11 (SEQ ID NO: 227) (human)
T6 peptide: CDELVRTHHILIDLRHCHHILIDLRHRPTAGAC
Procedure: as §1

B1: anti-hTROP-2 monoclonal antibody clone T6-16 (antibody, mouse IgG2a, V domains shown)
VH: EVQLQQSGPELVKPGASVKISCKASGYTFTDYNMHWVKQSHGKNLEWIGYIYPYNGGTGYNQRFKSRATMTVDKSSSTAYMELRSLTSDDSAVYYCAREDYGSSPSYAMDYWGQGTSVIVSS
VL: DVVMTQTPLSLPVSLGDQASISCRSSQSLVHGNGNTYLHWYLQKPGQSPKLLIYKVSNRFSGVPDRFSGSGSGTDFTLKISRVEAEDLGVYFCSQTTHVPTFGSGTKLEIK
notes: mouse IgG2a, hybridoma FERM BP-11346; also called T6-16 antibody
[1]
  binding of 16-16: 714
[2]
  binding of 16-16: 713
[3]
  binding of 16-16: 670
[4]
  binding of 16-16: 626
[5]
  binding of 16-16: 620
[6]
  binding of 16-16: 534

Source: patent publication US20160333110A1 (CHIOME BIOSCIENCE, published 2016)
